Data taken from the supplement of paper PMC9112550, “Optimization of the antimicrobial peptide Bac7 by deep mutational scanning” (BMC Biology, 2022).

tested on: Escherichia coli TOP10; experiment: shrunken log2 fold change of peptide-encoding DNA abundance (4.5 h post-induction vs induction); higher = less antimicrobial activity (less host growth inhibition); conditions: time post-induction: 4.5 h; library: site-saturation at positions 5, 18, 19, 20
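Also: peptides expressed intracellularly from a pBAD plasmid library in pooled LB shake-flask culture, induced with 0.3% L-arabinose, DNA abundance read by NGS, three biological replicates, DESeq2 with apeglm shrinkage.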

| Sequence | shrunken log2 fold change |
| --- | --- |
| RRIRMRPPRLPRPRPRPCYYPRP | -0.199 |
| RRIRLRPPRLPRPRPRPFWNPRP | -0.275 |
| RRIRHRPPRLPRPRPRPGGWPRP | 1.47 |
| RRIRLRPPRLPRPRPRPDWRPRP | 0.0715 |
| RRIRERPPRLPRPRPRPQWSPRP | 0.0836 |
| RRIRNRPPRLPRPRPRPEFWPRP | 0.0698 |
| RRIRHRPPRLPRPRPRPYYSPRP | -0.191 |
| RRIRCRPPRLPRPRPRPAKCPRP | -0.101 |
| RRIRGRPPRLPRPRPRPEFGPRP | 0.797 |
| RRIRIRPPRLPRPRPRPYSPPRP | -0.0324 |
| RRIRQRPPRLPRPRPRPTFYPRP | -0.116 |
| RRIRCRPPRLPRPRPRPLMAPRP | 0.18 |
| RRIRFRPPRLPRPRPRPGHQPRP | -0.233 |
| RRIRCRPPRLPRPRPRPQWGPRP | 0.502 |
| RRIRGRPPRLPRPRPRPGGRPRP | 1.09 |
| RRIRRRPPRLPRPRPRPKYMPRP | -0.444 |
| RRIRCRPPRLPRPRPRPDHPPRP | 0.264 |
| RRIRNRPPRLPRPRPRPNQGPRP | -0.338 |
| RRIRMRPPRLPRPRPRPRHEPRP | 0.532 |
| RRIRYRPPRLPRPRPRPEYGPRP | -0.249 |
| RRIRRRPPRLPRPRPRPGRKPRP | 0.332 |
| RRIRFRPPRLPRPRPRPKYYPRP | -0.386 |
| RRIRSRPPRLPRPRPRPITWPRP | -0.284 |
| RRIRERPPRLPRPRPRPFNNPRP | -0.39 |
| RRIRNRPPRLPRPRPRPFYSPRP | 0.0464 |

| Sequence | shrunken log2 fold change |
| --- | --- |
| RRIRQRPPRLPRPRPRPADSPRP | -0.00947 |
| RRIRQRPPRLPRPRPRPMWTPRP | 0.158 |
| RRIRCRPPRLPRPRPRPCPRPRP | 0.00856 |
| RRIRLRPPRLPRPRPRPALGPRP | 0.935 |
| RRIRNRPPRLPRPRPRPTQHPRP | 0.0469 |
| RRIRCRPPRLPRPRPRPTEAPRP | 0.425 |
| RRIRCRPPRLPRPRPRPRAPPRP | 0.87 |
| RRIRYRPPRLPRPRPRPHPDPRP | -0.299 |
| RRIRGRPPRLPRPRPRPWNFPRP | -0.289 |
| RRIRTRPPRLPRPRPRPFGDPRP | 0.0755 |
| RRIRERPPRLPRPRPRPANMPRP | -0.19 |
| RRIRARPPRLPRPRPRPQWAPRP | 0.156 |
| RRIRTRPPRLPRPRPRPQEDPRP | -0.01 |
| RRIRMRPPRLPRPRPRPHGSPRP | 0.0248 |
| RRIRDRPPRLPRPRPRPIFYPRP | 0.0295 |
| RRIRTRPPRLPRPRPRPNIYPRP | 0.0647 |
| RRIRKRPPRLPRPRPRPQVRPRP | -0.117 |
| RRIRYRPPRLPRPRPRPQEQPRP | -0.0134 |
| RRIRIRPPRLPRPRPRPNKPPRP | -0.119 |
| RRIRNRPPRLPRPRPRPKFYPRP | -0.83 |
| RRIRHRPPRLPRPRPRPTICPRP | -0.41 |
| RRIRPRPPRLPRPRPRPQQPPRP | 0.132 |
| RRIRIRPPRLPRPRPRPGIVPRP | -0.399 |
| RRIRCRPPRLPRPRPRPDNGPRP | -0.0856 |
| RRIRTRPPRLPRPRPRPILMPRP | -0.306 |

| Sequence | shrunken log2 fold change |
| --- | --- |
| RRIRDRPPRLPRPRPRPKKVPRP | 0.241 |
| RRIRTRPPRLPRPRPRPKATPRP | -0.146 |
| RRIRSRPPRLPRPRPRPDSAPRP | 0.0412 |
| RRIRTRPPRLPRPRPRPANEPRP | -0.226 |
| RRIRIRPPRLPRPRPRPLTGPRP | -0.0674 |
| RRIRMRPPRLPRPRPRPQVGPRP | 0.12 |
| RRIRIRPPRLPRPRPRPLDSPRP | -0.0212 |
| RRIRGRPPRLPRPRPRPDRFPRP | 0.375 |
| RRIRRRPPRLPRPRPRPMGKPRP | 0.35 |
| RRIRDRPPRLPRPRPRPICMPRP | -0.00256 |
| RRIRLRPPRLPRPRPRPYFCPRP | -0.34 |
| RRIRCRPPRLPRPRPRPIPDPRP | 0.106 |
| RRIRHRPPRLPRPRPRPRQYPRP | -0.185 |
| RRIRCRPPRLPRPRPRPAHDPRP | 0.031 |
| RRIRGRPPRLPRPRPRPKLYPRP | 0.354 |
| RRIRSRPPRLPRPRPRPFGKPRP | -0.0207 |
| RRIRARPPRLPRPRPRPWLVPRP | 0.0219 |
| RRIRSRPPRLPRPRPRPMQQPRP | 0.178 |
| RRIRSRPPRLPRPRPRPIQCPRP | 0.0235 |
| RRIRERPPRLPRPRPRPSDYPRP | -0.627 |
| RRIRWRPPRLPRPRPRPKALPRP | 0.237 |
| RRIRLRPPRLPRPRPRPLQNPRP | 0.166 |
| RRIRLRPPRLPRPRPRPREMPRP | 0.149 |
| RRIRSRPPRLPRPRPRPKQQPRP | 0.741 |
| RRIRHRPPRLPRPRPRPLTIPRP | -0.207 |
